The subject of the series is bovine brain microvessel endothelial cells (BBMECs). The experiment in a line: Metabolism of Dyn A 1–17 in the presence of BBMECs. To be noted: incubation with bovine brain microvessel endothelial cells, LC-MS/MS. The format is in vitro ADME.

For the substance Dynorphin A 1–17 [Dyn A 1–17], the “metabolite identified in the presence of BBMECs” value was “Dyn A 1–6 is identified as a metabolite”.

Source of the values: paper PMC3540977 (Peptides, 2012).
